We go through 2 molecules from patent US7262005.

code Z = not defined here; fmk = not defined here

The target in one data set is caspases. The data set is described as follows: cell-based or functional assay.
Data set [1] addresses 2XUb-DEVD-Bla fusion protein, P62593.

Chain of 2XUb-DEVD-Bla fusion protein, P62593 (P62593 whole entry, looked up, the tested form may be a part): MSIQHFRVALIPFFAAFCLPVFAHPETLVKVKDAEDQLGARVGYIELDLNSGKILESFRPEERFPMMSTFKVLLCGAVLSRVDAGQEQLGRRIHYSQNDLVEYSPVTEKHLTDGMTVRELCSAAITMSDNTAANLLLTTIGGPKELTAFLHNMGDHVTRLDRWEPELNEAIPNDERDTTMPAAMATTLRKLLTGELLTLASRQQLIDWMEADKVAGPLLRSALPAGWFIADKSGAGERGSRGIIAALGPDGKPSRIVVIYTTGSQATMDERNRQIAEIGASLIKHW

Regarding {code Z}-Val-Ala-Asp-fmk (reading uncertain; also: printed as Z-VAD-fmk) [Z-VAD-fmk], in the data set with caspases, the 460/530 emission ratio, + αFas/+ inh/+ chx, Jurkat cells expressing 2XUb-DEVD-Bla, 10 µM Z-VAD-fmk (460/530 emission ratio) is 0.08 and the IC50 of inhibition of anti-Fas-induced caspase activity in Jurkat cells expressing 2XUb-DEVD-Bla (β-lactamase activity, CCF2 460/530 nm ratio) was 5 µM.

B1: purified recombinant caspase-3 (protein)
chain: SGISLDNSYKMDYPEMGLCIIINNKNFHKSTGMTSRSGTDVDAANLRETFRNLKYEVRNKNDLTREEIVELMRDVSKEDHSKRSSFVCVLLSHGEEGIIFGTNGPVDLKKITNFFRGDRCRSLTGKPKLFIIQACRGTELDCGIETDSGVDDDMACHKIPVEADFLYAYSTAPGYYSWRNSKDGSWFIQSLCAMLKQYADKLEFMHILTRVNRKVATEFESFSFDATFHAKKQIPCIVSMLTKELYFYH
In the case of B1, in data set [1], the “in vitro cleavage of the 35S-labeled fusion by 25 nM purified caspase-3, SDS-PAGE and autoradiography” value was “over 90% cleavage within 5 minutes”.
